# Data published in patent US20220363757A1.
# Tests used:
# [1] = target: human LAG-3 domain 1-2 Fc fusion, point mutation #30 G83A (human) (UniProt P18627); experiment: SPR, Fab over captured mutant LAG-3-Fc
# [2] = target: human LAG-3 domain 1-2 Fc fusion, point mutation #22 A75S (human) (UniProt P18627); experiment: SPR, Fab over captured mutant LAG-3-Fc
# [3] = target: human LAG-3 ECD human IgG1 Fc fusion (human) (UniProt P18627); experiment: SPR, Fab over captured LAG-3 ECD-Fc
# [4] = target: cynomolgus LAG-3 ECD human IgG1 Fc fusion (cynomolgus; human) (UniProt P18627); experiment: SPR, Fab over captured LAG-3 ECD-Fc
# cynomolgus LAG-3 ECD human IgG1 Fc fusion (cynomolgus; human), sequence (P18627 other isoform, or with tags, fused parts or gaps, form in doubt): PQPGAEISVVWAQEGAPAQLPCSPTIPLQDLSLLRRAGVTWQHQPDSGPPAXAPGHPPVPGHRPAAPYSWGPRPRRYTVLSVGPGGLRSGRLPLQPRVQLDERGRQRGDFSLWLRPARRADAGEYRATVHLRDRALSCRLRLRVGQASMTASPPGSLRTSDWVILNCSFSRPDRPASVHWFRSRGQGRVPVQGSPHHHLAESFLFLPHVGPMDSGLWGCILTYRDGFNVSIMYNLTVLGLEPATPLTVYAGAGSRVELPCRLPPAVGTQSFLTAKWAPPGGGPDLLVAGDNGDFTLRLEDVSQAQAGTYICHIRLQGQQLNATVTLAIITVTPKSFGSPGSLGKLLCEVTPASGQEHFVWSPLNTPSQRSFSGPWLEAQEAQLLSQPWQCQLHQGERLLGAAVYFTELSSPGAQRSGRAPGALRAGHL
# human LAG-3 ECD human IgG1 Fc fusion (human), sequence (P18627 23-450): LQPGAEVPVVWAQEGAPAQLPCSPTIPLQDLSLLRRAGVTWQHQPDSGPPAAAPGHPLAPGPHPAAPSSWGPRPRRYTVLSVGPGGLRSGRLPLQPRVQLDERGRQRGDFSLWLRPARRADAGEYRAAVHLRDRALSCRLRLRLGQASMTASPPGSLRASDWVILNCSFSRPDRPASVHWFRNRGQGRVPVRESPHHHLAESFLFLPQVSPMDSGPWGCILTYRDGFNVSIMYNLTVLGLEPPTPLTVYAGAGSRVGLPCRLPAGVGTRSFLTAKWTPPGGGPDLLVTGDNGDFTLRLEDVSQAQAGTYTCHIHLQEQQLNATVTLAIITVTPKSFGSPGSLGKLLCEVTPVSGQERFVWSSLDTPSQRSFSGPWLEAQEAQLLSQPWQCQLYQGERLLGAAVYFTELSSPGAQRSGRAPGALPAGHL
# human LAG-3 domain 1-2 Fc fusion, point mutation #30 G83A (human), sequence (P18627 23-266 G83A): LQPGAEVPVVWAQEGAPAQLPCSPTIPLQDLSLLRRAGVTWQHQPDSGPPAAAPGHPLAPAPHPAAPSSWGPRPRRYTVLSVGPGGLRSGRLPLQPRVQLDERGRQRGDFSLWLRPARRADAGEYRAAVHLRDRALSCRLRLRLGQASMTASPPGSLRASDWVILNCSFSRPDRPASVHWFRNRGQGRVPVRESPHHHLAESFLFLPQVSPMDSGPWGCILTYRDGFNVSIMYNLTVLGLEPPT
# human LAG-3 domain 1-2 Fc fusion, point mutation #22 A75S (human), sequence (P18627 23-266 A75S): as the sequence (P18627 23-266 G83A) above, with A53S, A61G counted along it
substance,measurement,setting,value
Fab fragment of 25F7-Lag3.5 analogue,KD mutant/KD wild type,[1],1 fold
same,KD mutant/KD wild type,[2],0.9 fold
same,Kd,[3],8.5 nM
same,koff,[3],0.0012 s⁻¹
same,kon,[3],140000 M⁻¹ s⁻¹
same,Kd,[4],910 nM
same,koff,[4],0.0038 s⁻¹
same,kon,[4],4200 M⁻¹ s⁻¹
